In the RNAGym collection of RNA variant scans (doi:10.7554/elife.80360) one finds self-cleavage data, which are given here for 32 variants.

First the molecules themselves.
B1: HDV Ribozyme (parent)
chain: GGCCGGCAUGGUCCCAGCCUCCUCGCUGGCGCCGGCUGGGCAACAUUCCGAGGGGACCGUCCCCUCGGUAAUGGCGAAUGGGACCCA

In this series the parent is B1. As to the kind of experiment: self-cleavage, relative activity (ratio to wild type); higher = more cleavage; co-transcriptional.
Take GGCCGGCAUGGUCCCAGCCUCCUCGCUGGCGCCGGCUGGGCAACAUUCCGAGAGGACCGUCCCCUCGGUAAUGGCGAAUGGGUCCCA: the self-cleavage is 0.521.

In the case of GGCCGGCAUGGUCCCAGCCUCCUCACUGGGGCCGGCUGGGCAACAUUCCGAGGGGACCGUCCCCUCGGUAAUGGCGAAUGGGACCCA, the self-cleavage amounted to 0.

For GGCCGGCAUGGUGCCAGCCUCCUCGCUGGCGCCGGCUGGGCAACAUUCCGUGGGGACCGUCCCCUCGGUAAUGGCGAAUGGGACCCA, the self-cleavage is 0.

With GGCCGGCAUGGUCCCAGCCUCCUCGCUGGCGCCGGCUGGGCAACAUUCCGAGGGGACCGUCUCCUCGGUAAUGGCGAAUGGUACCCA, the self-cleavage worked out at 0.402.

Consider GGCCGGCAUGGUCCCAGCCUCCUCGCUGGCGCCGGCUGGGCAACAUUCCGAGGGCACCGUCCCCUCGGUAAUGACGAAUGGGACCCA, for which the self-cleavage was 0.538.

For GGACGGCAAGGUCCCAGCCUCCUCGCUGGCGCCGGCUGGGCAACAUUCCGAGGGGACCGUCCCCUCGGUAAUGGCGAAUGGGACCCA, the self-cleavage is 0.657.

On to GGCCGGCAUGGUCCCAGCCUCCUCGCUGGCGCCGGCUGGGCAACAUUCCGAGGGGACCGUCCCCUCGGUAAUGGAGAAUGGGUCCCA, for which the self-cleavage amounted to 0.151.

On to GGCCGGCAUGGUCCCAGCCUCCUCGCUGGCGCCGGCUGGACAACAUUCCGAGGGGACCGUCCACUCGGUAAUGGCGAAUGGGACCCA, for which the self-cleavage worked out at 0.856.

GGCCGGCAAGGUCCCAGCCUCUUCGCUGGCGCCGGCUGGGCAACAUUCCGAGGGGACCGUCCCCUCGGUAAUGGCGAAUGGGACCCA: the self-cleavage was 0.831.

Consider GGCCGGCAUGGUCCCAGCCUCCUCGCUGGCGCCGGCUGGGCAACAUUCCUAGGGGACCGUACCCUCGGUAAUGGCGAAUGGGACCCA, for which the self-cleavage was found to be 0.986.

Turning to GGCCGACAUGGUCCCAGCCUCCUCGCUGGCGCCGGCUGGGCAACAUUCCGAGGGGACCGUCCCCGCGGUAAUGGCGAAUGGGACCCA, the self-cleavage came out at 0.506.

Take GGCCUGCAUGGUCCCAGCCUCCUCGCUGGCGCCGGCUGGGCAACAUUCCGAGGGGACCGUCCUCUCGGUAAUGGCGAAUGGGACCCA: the self-cleavage was determined as 0.38.

In the case of GGGCGGCAUGGUACCAGCCUCCUCGCUGGCGCCGGCUGGGCAACAUUCCGAGGGGACCGUCCCCUCGGUAAUGGCGAAUGGGACCCA, the self-cleavage came to 0.0545.

Regarding GGCCGGCAUGGUCCCACCCUCGUCGCUGGCGCCGGCUGGGCAACAUUCCGAGGGGACCGUCCCCUCGGUAAUGGCGAAUGGGACCCA, the self-cleavage is 0.208.

For the variant GGCCGGCAUGGUCCCAGCCUCCUCGCUGGCGCCGGCUGGGCAACAUUCCGAGGUGACCGUCCCCUCGGUAAUUGCGAAUGGGACCCA, the self-cleavage amounted to 0.364.

As to GGCCGGCAUGGUCACAGCCUCCUCGCUGGCGCCGGCUGGGCAACAUACCGAGGGGACCGUCCCCUCGGUAAUGGCGAAUGGGACCCA, the self-cleavage amounted to 0.639.

Take GGCCGGCAUGGUCCCAGCCUCCUCGCUGGCGCCGGCUGUGCAACAUUCCGAGGGGACCGUCCCCUCGGUAAUCGCGAAUGGGACCCA: the self-cleavage was found to be 0.3.

For the variant GGCUGUCAUGGUCCCAGCCUCCUCGCUGGCGCCGGCUGGGCAACAUUCCGAGGGGACCGUCCCCUCGGUAAUGGCGAAUGGGACCCA, the self-cleavage came to 0.219.

GGCCGGCAAGGUCCCAGCCUCCUCGCUGGCGCCGGCUGGGCAACAUUCCGGGGGGACCGUCCCCUCGGUAAUGGCGAAUGGGACCCA: the self-cleavage worked out at 0.59.

GGCCGGCAUGGUCCCAGCCUCCUCGCUGGCGCCGGCUGGGCAACAUUCCGAGCGGACCGUUCCCUCGGUAAUGGCGAAUGGGACCCA: the self-cleavage was found to be 1.2.

GGCGGGCAUGGUCCCAGCCUCCUCGCUGGCGCCGGCUGGGCAACAUUCCGAGGGGACCGUCCCCUCGGUAAUGCCGAAUGGGACCCA: the self-cleavage came to 0.0386.

For the variant GGCCGACAUGGUCACAGCCUCCUCGCUGGCGCCGGCUGGGCAACAUUCCGAGGGGACCGUCCCCUCGGUAAUGGCGAAUGGGACCCA, the self-cleavage was determined as 0.237.

Take GGCCGGCAUGGUCCCAGCCUCCUCGCUGGCGCCGGCUGGGCAACAUUACGAGGGGACCGUCCCCUCGGUGAUGGCGAAUGGGACCCA: the self-cleavage was 1.11.

For GGCCGGCAUGGUCCCAGCCUCCUCGCUGGCGCCGGCUGGGCAACAUGCCGAGGGGACCGUCCCAUCGGUAAUGGCGAAUGGGACCCA, the self-cleavage is 0.875.

As for GGCCGGCAUGGUCCCAGCCUCCUCGCUGGCGCCGGCUGGGCAACAUUCAGAGGGGACCGUCCCCUCGGUAAUGGCGGAUGGGACCCA, the self-cleavage turned out to be 0.458.

In the case of GGCCGGCAUGGUCACAGCCUCCUCGCUGGCGCCGUCUGGGCAACAUUCCGAGGGGACCGUCCCCUCGGUAAUGGCGAAUGGGACCCA, the self-cleavage is 0.232.

Regarding GGGCGGCAUGGUCCCAGCCUCCUAGCUGGCGCCGGCUGGGCAACAUUCCGAGGGGACCGUCCCCUCGGUAAUGGCGAAUGGGACCCA, the self-cleavage turned out to be 0.

Take GGCCGGCAUGGUCCCAGCCUCCUCGCUGGCGCCGGCUGGGCAACAUGCCGAGGGGACCGUCCCCUCGGUAAUGGCGAAUGGGUCCCA: the self-cleavage came to 0.525.

Turning to GGCCGGCAUGGUCCCAGCCUCCUCGCUGGCGCCGGGUGGGCAACAUUCCCAGGGGACCGUCCCCUCGGUAAUGGCGAAUGGGACCCA, the self-cleavage stood at 0.0437.

As to AGCCGGCAUGGUCACAGCCUCCUCGCUGGCGCCGGCUGGGCAACAUUCCGAGGGGACCGUCCCCUCGGUAAUGGCGAAUGGGACCCA, the self-cleavage amounted to 0.0573.

As for GGCCGGCAUGGUCCCAGCCUCCUCGCUGGCGCCGGCGGGGCAACAUUCCGAGGGGAUCGUCCCCUCGGUAAUGGCGAAUGGGACCCA, the self-cleavage is 0.0405.

Take GGCCGGCAUGGUCCCAGCCUCCUCGCUGGCGCAGCCUGGGCAACAUUCCGAGGGGACCGUCCCCUCGGUAAUGGCGAAUGGGACCCA: the self-cleavage is 0.133.
